From patent US20040191811A1, “Methods for measuring levels of uridine-diphosphate-N-acetylglucosamine and activity of inhibitors thereof” (priority 2002, published 2004)

Experiments:
Type in all cases: biochemical, human
Conditions in all cases: other: extracts from transfected SF9 insect cells, 60 minutes at 37° C.
[1] = substrate: NC(=O)CC[C@H](N)C(=O)O; assay: Substrate Km determination for GFAT-alpha (Lineweaver-Burk plot)
Experimental: (§1) FIG. 3 illustrates the effect of varying concentrations of the substrates glutamine and fructose 6-phosphate on the enzyme activity of GFAT-alpha and GFAT-beta. FIG. 3A is a graph illustrating incubation with 10 μl glutamine 200 mM+10 μl fructose 6-phosphate 3.125, 6.25, 12.5, 25, 50, 100, and 200 mM. FIG. 3B is a graph illustrating incubation with 10 μl fructose 6-phosphate 200 mM+10 μl glutamine 3.125, 6.25, 12.5, 25, 50, 100, and 200 mM. 10 μl of GFAT-alpha and 5 μl of GFAT-beta extracts from transfected SF9 insect cells are incubated with 1) 10 μl glutamine 200 mM+10 μl fructose 6-phosphate 3.125, 6.25, 12.5, 25, 50, 100, and 200 mM, and 2) 10 μl fructose 6-phosphate 200 mM+10 μl glutamine 3.125, 6.25, 12.5, 25, 50, 100, and 200 mM in an incubation media containing 10 μl PBS 10×, 10 μl EDTA 50 mM, 10 μl DTT 10 mM, and water to 100 μl. The plate is sealed with a Costar plate sealer and incubated for 60 minutes at 37° C. by floating on a water bath. Additional incubation mixture is kept on ice to add to standard and control samples. […] After a 20-minute incubation at 37° C., the OD is determined for each well at 585 nm.
(§2) FIG. 3C is a table illustrating the Km values of the substrates for the GFAT-alpha and GFAT-beta enzymes calculated from the data generated in FIGS. 3A and 3B. […]

[2] = substrate: O=C(CO)[C@@H](O)[C@H](O)[C@H](O)COP(=O)(O)O; assay: as above
Experimental: as §1, §2

[3] = substrate: NC(=O)CC[C@H](N)C(=O)O; assay: Substrate Km determination for GFAT-beta (Lineweaver-Burk plot)
Experimental: as §1, §2

[4] = substrate: O=C(CO)[C@@H](O)[C@H](O)[C@H](O)COP(=O)(O)O; assay: as above
Experimental: as §1, §2

Protein	Km [1] [µM]	Km [2] [µM]	Km [3] [µM]	Km [4] [µM]
GFAT-alpha (Homo sapiens) (protein, made in house; host or cells: SF9 insect cells (sonicated, centrifuged cell extract, not purified)) MCGIFAYLNYHVPRTRREILETLIKGLQRLEYRGYDSAGVGFDGGNDKDWEANACKIQLIKKKGKVKALDEEVHKQQDMDLDIEFDVHLGIAHTRWATHGEPSPVNSHPQRSDKNNEFIVIHNGIITNYKDLKKFLESKGYDFESETDTETIAKLVKYMYDNRESQDTSFTTLVERVIQQLEGAFALVFKSVHFPGQAVGTRRGSPLLIGVRSEHKLSTDHIPILYRTGKDKKGSCNLSRVDSTTCLFPVEEKAVEYYFASDASAVIEHTNRVIFLEDDDVAAVVDGRLSIHRIKRTAGDHPGRAVQTLQMELQQIMKGNFSSFMQKEIFEQPESVVNTMRGRVNFDDYTVNLGGLKDHIKEIQRCRRLILIACGTSYHAGVATRQVLEELTELPVMVELASDFLDRNTPVFRDDVCFFLSQSGETADTLMGLRYCKERGALTVGITNTVGSSISRETDCGVHINAGPEIGVASTKAYTSQFVSLVMFALMMCDDRISMQERRKEIMLGLKRLPDLIKEVLSMDDEIQKLATELYHQKSVLIMGRGYHYATCLEGALKIKEITYMHSEGILAGELKHGPLALVDKLMPVIMIIMRDHTYAKCQNALQQVVARQGRPVVICDKEDTETIKNTKRTIKVPHSVDCLQGILSVIPLQLLAFHLAVLRGYDVDFPRNLAKSVTVE	1490	1850	–	–
GFAT-beta (Homo sapiens) (protein, made in house; host or cells: SF9 insect cells (sonicated, centrifuged cell extract, not purified)) MCGIFAYMNYRVPRTRKEIFETLIKGLQRLEYRGYDSAGVAIDGNNHEVKERHIQLVKKRGKVKALDEELYKQDSMDLKVEFETHFGIAHTRWATHGVPSAVNSHPQRSDKGNEFVVIHNGIITNYKDLRKFLESKGYEFESETDTETIAKLIKYVFDNRETEDITFSTLVERVIQQLEGAFALVFKSVHYPGEAVATRRGSPLLIGVRSKYKLSTEQIPILYRTCTLENVKNICKTRMKRLDSSACLHAVGDKAVEFFFASDASAIIEHTNRVIFLEDDDIAAVADGKLSIHRVKRSASDDPSRAIQTLQMELQQIMKGNFSAFMQKEIFEQPESVFNTMRGRVNFETNTVLLGGLKDHLKEIRRCRRLIVIGCGTSYHAAVATRQVLEELTELPVMVELASDFLDRNTPVFRDDVCFFISQSGETADTLLALRYCKDRGALTVGVTNTVGSSISRETDCGVHINAGPEIGVASTKAYTSQFISLVMFGLMMSEDRISLQNRRQEIIRGLRSLPELIKEVLSLEEKIHDLALELYTQRSLLVMGRGYNYATCLEGALKIKEITYMHSEGILAGELKHGPLALIDKQMPVIMVIMKDPCFAKCQNALQQVTARQGRPIILCSKDDTESSKFAYKTIELPHTVDCLQGILSVIPLQLLSFHLAVLRGYDVDFPRNLAKSVTVE	–	–	1990	6800
